The results in this text go back to patent publication US20220268706A1.

Test [1] concerns the target antibody-12/36-RLuc8 conjugate (Renilla reniformis). The test is described as follows: BRET competition, Fluorostar; 50 nM mAb-12/36-RLuc8, 200 nM FLAG-GFP^2 as competitor.
For test [2], the target named is antibody-CLICK-RLuc8 (anti-FLAG mAb-dPEG4-DBCO:RLuc8:dPEG8azide conjugate) (Renilla reniformis). The test is described as follows: BRET competition; 50 nM conjugate, 200 nM FLAG-GFP^2 as competitor, 1 µM FLAG peptide.
antibody-CLICK-RLuc8 (anti-FLAG mAb-dPEG4-DBCO:RLuc8:dPEG8azide conjugate) (Renilla reniformis), sequence (P27652 other isoform, or with tags, fused parts or gaps): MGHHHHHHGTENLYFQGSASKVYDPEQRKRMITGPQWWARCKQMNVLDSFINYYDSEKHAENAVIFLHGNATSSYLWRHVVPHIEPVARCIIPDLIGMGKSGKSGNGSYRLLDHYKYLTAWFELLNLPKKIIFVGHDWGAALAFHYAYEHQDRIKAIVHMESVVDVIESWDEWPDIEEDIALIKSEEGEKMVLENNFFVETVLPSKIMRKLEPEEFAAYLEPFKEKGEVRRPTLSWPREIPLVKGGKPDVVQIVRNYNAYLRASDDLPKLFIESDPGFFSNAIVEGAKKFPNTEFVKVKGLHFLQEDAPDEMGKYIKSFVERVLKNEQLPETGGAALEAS
Test [3] has the same target. As to the kind of experiment: BRET competition; 5 nM antibody-CLICK-RLuc8, 150 nM FLAG-GFP^2 as competitor, 100 nM FLAG peptide; same for every order of addition. Background: BRET reads energy transfer from a luciferase to a nearby fluorophore.

antibody-12/36-RLuc8 conjugate (Renilla reniformis), sequence (P27652 other isoform, or with tags, fused parts or gaps): as above

Regarding FLAG peptide (DYKDDDDK), in test [1], the EC50 (as a rule, the concentration giving half of the maximal effect) amounted to 274 nM. In test [2], this substance gave a response to 1 µM FLAG peptide of 45%. In test [3], the decrease in the BRET ratio was determined as 22%.
